For the data set, the system named is T1, OCc1ccccc1O[C@@H]1O[C@H](CO)[C@@H](O)[C@H](O)[C@H]1O.
T1 construct: forward primer reads ATG GCA AAG ATA ACT TTC (N-terminus MAKITF, NcoI site may change residue 2)
Description: DNS reducing-sugar assay, Lineweaver-Burk plot. Type of data set: biochemical, Acetivibrio thermocellus. Conditions: 1.5 M Tris-Cl pH 7.0, 50 °C, 30 min, substrate range 2.5-20 mM.

As for “BglA (Acetivibrio thermocellus ATCC 27405; S2A)”, the Km amounted to 19.83 mM.

By Km is commonly meant the substrate concentration at which the rate is half of its maximum.

Values taken from paper PMC6885295, “Soluble Production, Characterization, and Structural Aesthetics of an Industrially Important Thermostable β-Glucosidase from Clostridium thermocellum in Escherichia coli” (BioMed Research International, 2019).
